Data reported in patent publication US20210363269A1 (ALX ONCOLOGY, published 2021).

Tests used:
[1] = target: T1, human SIRP-α v2 D1 domain (human); test: SPR, antibody immobilised on GLC chip
T1 construct: also called human v2; human α v2
Procedure: (§1) All experiments were performed at 25° C. using a SPR-based ProteOn XPR36 biosensor (BioRad, Inc, Hercules, Calif.) equipped with GLC or NLC sensor chips. […] Purification was carried out by standard Protein A affinity column chromatography and eluted antibodies were stored in PBS buffer.
(§2) For the method using GLC chip, the analytes were injected and flowed over anti-SIRPα antibodies immobilized (˜1000 RUs) on GLC chips using Proteon™ Amine Coupling Kit. For the immobilization step, GLC chip was activated with EDAC/Sulpho-NHS 1:1 (Biorad) diluted 1/100 for 300 s at 25 μL/min. Anti-SIRPα antibodies were diluted to 80 nM concentration in 10 mM sodium acetate buffer pH 4.5 and immobilized to the chip at 30 μL/min for 50 s. Chip was inactivated with ethanolamine for 300 s at 25 μL/min. The analytes (e.g., SIRP-α from different species, SIRP-β, SIRP-γ) were injected in a “one-shot” kinetic mode at nominal concentrations of 100, 33, 11, 3.7, 1.2 and 0 nM. Association times were monitored for 90 s at 100 μL/min, and dissociation times were monitored for 1200 s. The surfaces were regenerated with a 2:1 v/v blend of Pierce IgG elution buffer/4M NaCl.

[2] = target: T2, human SIRP-α v1 D1 domain (human, UniProt P78324 31-149); test: SPR, antibody immobilised on GLC chip
T2 construct: also called human v1; human α v1
Procedure: as §1, §2

[3] = target: T3, cynomolgus SIRP-α D1 domain (SEQ ID NO:11) (cynomolgus, UniProt Q5TFQ8 30-148 (human entry), limits assumed); test: SPR, antibody immobilised on GLC chip
T3 construct: also called cyno1
T3 chain: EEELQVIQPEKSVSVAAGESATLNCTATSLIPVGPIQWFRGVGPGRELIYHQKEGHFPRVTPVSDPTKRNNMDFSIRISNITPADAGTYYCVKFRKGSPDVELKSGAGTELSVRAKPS
Procedure: as §1, §2

cynomolgus SIRP-α = target: T4, cynomolgus SIRP-α (cynomolgus monkey, UniProt Q5TFQ8 30-148 (human entry), limits assumed); test: SPR, antibody on GLC chip
T4 construct: also called cyno1
T4 chain: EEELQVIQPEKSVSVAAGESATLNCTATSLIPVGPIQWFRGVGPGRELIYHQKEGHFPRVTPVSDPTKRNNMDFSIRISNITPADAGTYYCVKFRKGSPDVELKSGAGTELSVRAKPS
Outline: (§3)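 On a ProteOn XPR36 biosensor, Protein A-purified antibodies were amine-coupled to a GLC chip at about ~1000 RU after dilution to 80 nM in 10 mM sodium acetate pH 4.5. SIRP analytes at 100, 33, 11, 3.7, 1.2 and 0 nM were then injected one-shot in PBS pH 7.4 containing 0.01% Tween-20 at 25° C, with 90 s of association at 100 μL/min and 1200 s of dissociation. The dissociation constant (KD) was calculated as kd/ka from a global Langmuir fit of double-referenced data.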

human SIRPγ isoform 1 = target: T5, human SIRPγ isoform 1 (human, UniProt Q9P1W8 29-147); test: SPR, antibody on GLC chip
T5 construct: also called Gamma; Human SIRPg
Outline: as §3

human SIRP-α v1 = target: T6, human SIRP-α v1 (human, UniProt P78324 31-149); test: SPR, antibody on GLC chip
T6 construct: also called Human v1; Human V1
Outline: as §3

human SIRP-α v2 = target: T7, human SIRP-α v2 (human); test: SPR, antibody on GLC chip
T7 construct: also called Human v2; Human V2
Outline: as §3

human SIRPβ isoform 1 = target: T8, human SIRPβ isoform 1 (human, UniProt O00241 30-148); test: SPR, antibody on GLC chip
T8 construct: also called Beta; Human SIRPb
Outline: as §3

BALBc mouse SIRP-α = target: T9, BALBc mouse SIRP-α (mouse (BALB/c strain)); test: SPR, antibody on GLC chip
T9 chain: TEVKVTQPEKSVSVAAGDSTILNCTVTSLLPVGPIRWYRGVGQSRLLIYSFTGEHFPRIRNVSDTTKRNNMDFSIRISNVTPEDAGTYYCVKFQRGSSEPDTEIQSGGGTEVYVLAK
Outline: as §3

BL6 mouse SIRP-α = target: T10, BL6 mouse SIRP-α (mouse (C57BL/6 strain), UniProt P97797 32-148); test: SPR, antibody on GLC chip
T10 construct: also called C57BL/6
T10 sequence: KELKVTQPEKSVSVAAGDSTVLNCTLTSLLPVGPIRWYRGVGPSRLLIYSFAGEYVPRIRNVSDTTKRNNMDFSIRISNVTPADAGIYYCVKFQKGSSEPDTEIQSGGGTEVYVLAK
Outline: as §3

NOD mouse SIRP-α = target: T11, NOD mouse SIRP-α (mouse (NOD strain)); test: SPR, antibody on GLC chip
T11 chain: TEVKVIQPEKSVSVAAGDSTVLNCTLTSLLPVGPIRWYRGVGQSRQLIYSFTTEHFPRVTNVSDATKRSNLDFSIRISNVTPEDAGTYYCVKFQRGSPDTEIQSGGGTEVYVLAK
Outline: as §3

T2 sequence (P78324 31-149 limits assumed): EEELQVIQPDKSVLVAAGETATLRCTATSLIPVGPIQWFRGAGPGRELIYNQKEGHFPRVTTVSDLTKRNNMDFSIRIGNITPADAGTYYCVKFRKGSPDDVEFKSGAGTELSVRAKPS
T1 sequence (chain, as listed by the source limits assumed): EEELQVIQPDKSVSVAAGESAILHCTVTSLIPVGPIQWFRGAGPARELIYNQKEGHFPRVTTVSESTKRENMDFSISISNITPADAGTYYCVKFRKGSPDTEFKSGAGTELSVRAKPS
T5 sequence (Q9P1W8 29-147 limits assumed): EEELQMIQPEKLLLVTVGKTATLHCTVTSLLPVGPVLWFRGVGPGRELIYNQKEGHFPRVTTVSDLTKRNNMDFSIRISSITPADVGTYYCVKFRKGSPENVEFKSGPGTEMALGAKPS
T6 sequence (P78324 31-149 limits assumed): as the sequence (P78324 31-149 limits assumed) above
T8 sequence (O00241 30-148 limits assumed): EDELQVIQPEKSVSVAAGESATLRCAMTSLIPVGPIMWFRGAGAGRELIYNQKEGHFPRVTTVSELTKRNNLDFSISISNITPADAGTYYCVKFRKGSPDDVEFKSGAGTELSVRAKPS
T7 sequence (chain, as listed by the source limits assumed): as the sequence (chain, as listed by the source limits assumed) above

B1: antibody 119 variant mut/wt (VL mut all / VH wt) (antibody, human IgG1, V domains shown)
VH: DVQLLESGGGVVQPGGSLRLSCAASGFSFSNFAMTWVRQAPGEGLEWVSTIGSGDTYYADSVKGRFTISRDNSKNTLYLQMNSLRAEDTAVYYCAKDSTVSWSGDFFDYWGLGTLVTVSS
VL: EIVLTQSPATLSVSPGERATLSCRASQNVKNDLAWYQQKPGQAPRLLIYAARIRETGIPARFSGSGSGTEFTLTISSLQSEDFAVYYCQQYYDWPPFTFGGGTKVEIK
notes: Human IgG1 with L234A/L235A/G237A/N297A; Labels are in the order VL/VH
Kd [1]: 0.0864 nM | Kd [2]: 0.214 nM | Kd [3]: 0.138 nM

B2: antibody 135 variant wt/mut V34M (antibody, human IgG1, V domains shown)
VH: EVQLVESGGGVVQPGGSLRLSCAASGFSFSIYAMSWVRQAPGKGLEWVSTIGADDTYYADSVKGRFTISRDNSKNTLYLQMNSLRAEDTAVYYCAKDSTVGWSGDFFDYWGQGTLVTVSS
VL: EIVLTQSPATLSVSPGERVTFSCRASQNVRSDIAWYQQKPGQAPRLLIYAASSRDTGIPDRFSGSGSGTDFTLTISSLQSEDFGVYYCQQYYDWPPFTFGGGTKVEIK
notes: as for B1
Kd [1]: 0.0161 nM | Kd [2]: 0.15 nM | Kd [3]: 0.0794 nM

B3: antibody 135 variant, light chain wt / heavy chain Mut_V34M (antibody, V domains shown)
VH: EVQLVESGGGVVQPGGSLRLSCAASGFSFSIYAMSWVRQAPGKGLEWVSTIGADDTYYADSVKGRFTISRDNSKNTLYLQMNSLRAEDTAVYYCAKDSTVGWSGDFFDYWGQGTLVTVSS
VL: EIVLTQSPATLSVSPGERVTFSCRASQNVRSDIAWYQQKPGQAPRLLIYAASSRDTGIPDRFSGSGSGTDFTLTISSLQSEDFGVYYCQQYYDWPPFTFGGGTKVEIK
Kd (cynomolgus SIRP-α): 0.0794 nM | Kd (human SIRPγ isoform 1): 0.533 nM | Kd (human SIRP-α v1): 0.15 nM | Kd (human SIRP-α v2): 0.0161 nM | Kd (human SIRPβ isoform 1): 0.16 nM | binding result (BALBc mouse SIRP-α): no binding | binding result (BL6 mouse SIRP-α): no binding | binding result (NOD mouse SIRP-α): no binding

B4: antibody 119 variant, light chain Mut / heavy chain Mut (antibody, V domains shown)
VH: EVQLLESGGGVVQPGGSLRLSCAASGFSFSNFAVTWVRQAPGKGLEWVSTIGSGDTYYADSVKGRFTISRDNSKNTLYLQMNSLRAEDTAVYYCAKDSTVSWSGDFFDYWGQGTLVTVSS
VL: EIVLTQSPATLSVSPGERATLSCRASQNVKNDLAWYQQKPGQAPRLLIYAARIRETGIPARFSGSGSGTEFTLTISSLQSEDFAVYYCQQYYDWPPFTFGGGTKVEIK
Kd (cynomolgus SIRP-α): 0.195 nM | Kd (human SIRPγ isoform 1): 0.336 nM | Kd (human SIRP-α v1): 0.317 nM | Kd (human SIRP-α v2): 0.0875 nM | Kd (human SIRPβ isoform 1): 0.46 nM | binding result (BALBc mouse SIRP-α): no binding | binding result (BL6 mouse SIRP-α): no binding | binding result (NOD mouse SIRP-α): no binding

B5: AB119 Wt/wt with hIgG4 (antibody, V domains shown)
VH: DVQLLESGGGVVQPGGSLRLSCAASGFSFSNFAMTWVRQAPGEGLEWVSTIGSGDTYYADSVKGRFTISRDNSKNTLYLQMNSLRAEDTAVYYCAKDSTVSWSGDFFDYWGLGTLVTVSS
VL: EIVLTQSPATLSVSPGERATFSCRASQNVKNDLAWYQQRPGQAPRLLIYAARIRETGIPERFSGSGSGTEFTLTITSLQSEDFAVYYCQQYYDWPPFTFGGGTKVEIK
notes: Human IgG4 Fc region with S228P (EU numbering); only variable domains tied to the clone
Kd [1]: 0.0598 nM | Kd [2]: 0.174 nM | Kd [3]: 0.116 nM
